Results taken from publication PMC10516938, “Conformational dynamics of cohesin/Scc2 loading complex are regulated by Smc3 acetylation and ATP binding” (Nature Communications, 2023).

Columns and labels:
[1] = target: T1, Smc3^QQ Q67C (S. cerevisiae, UniProt P47037 1-1230, Q67C | K112Q | K113Q); assay: cross-linking; in vivo BMOE cross-link of cysteine pairs in yeast cells arrested in late G1 by non-degradable Sic1(9m); Scc1-PK immunoprecipitated, western blot, band intensities quantified; conditions: partners not purified
T1 construct: Smc3, S. cerevisiae; source: S. cerevisiae W303, late G1 arrested cells, whole-cell extract
T1 sequence (looked up): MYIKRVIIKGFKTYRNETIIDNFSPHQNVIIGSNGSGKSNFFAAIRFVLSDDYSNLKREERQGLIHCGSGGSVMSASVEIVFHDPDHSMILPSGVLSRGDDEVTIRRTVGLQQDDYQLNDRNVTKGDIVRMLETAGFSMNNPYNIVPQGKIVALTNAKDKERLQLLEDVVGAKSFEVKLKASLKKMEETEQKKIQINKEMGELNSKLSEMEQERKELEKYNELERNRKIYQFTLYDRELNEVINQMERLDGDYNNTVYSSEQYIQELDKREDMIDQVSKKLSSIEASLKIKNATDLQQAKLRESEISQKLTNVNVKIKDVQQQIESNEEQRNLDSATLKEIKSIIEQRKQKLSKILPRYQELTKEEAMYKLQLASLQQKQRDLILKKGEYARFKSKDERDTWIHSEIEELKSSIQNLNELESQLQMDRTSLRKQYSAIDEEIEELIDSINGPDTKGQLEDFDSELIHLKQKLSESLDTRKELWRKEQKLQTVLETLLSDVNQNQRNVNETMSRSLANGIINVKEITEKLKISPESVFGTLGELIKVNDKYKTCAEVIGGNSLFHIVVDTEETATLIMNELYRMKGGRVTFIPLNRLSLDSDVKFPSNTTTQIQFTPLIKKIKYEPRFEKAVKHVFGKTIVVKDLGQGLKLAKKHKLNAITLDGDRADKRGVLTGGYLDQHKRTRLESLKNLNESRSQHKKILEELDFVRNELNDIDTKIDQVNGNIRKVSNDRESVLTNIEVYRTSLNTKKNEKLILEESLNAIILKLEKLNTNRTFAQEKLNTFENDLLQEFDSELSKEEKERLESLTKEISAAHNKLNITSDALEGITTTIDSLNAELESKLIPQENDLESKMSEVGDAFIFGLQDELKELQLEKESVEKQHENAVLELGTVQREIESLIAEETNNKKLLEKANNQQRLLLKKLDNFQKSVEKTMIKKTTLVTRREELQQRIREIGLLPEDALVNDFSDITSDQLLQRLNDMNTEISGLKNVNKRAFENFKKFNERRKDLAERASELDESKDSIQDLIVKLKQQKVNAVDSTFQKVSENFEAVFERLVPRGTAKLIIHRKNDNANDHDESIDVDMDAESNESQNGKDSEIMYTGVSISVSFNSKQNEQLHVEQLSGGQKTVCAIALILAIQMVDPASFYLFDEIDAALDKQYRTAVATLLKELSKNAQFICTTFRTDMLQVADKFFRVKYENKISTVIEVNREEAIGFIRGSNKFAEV

[2] = target: T2, Smc3^QQ R1008I Q67C (S. cerevisiae, UniProt P47037 1-1230, Q67C | K112Q | K113Q | R1008I); assay: as above; conditions: partners not purified
T2 construct: Smc3, S. cerevisiae; also called smc3-QQ Q67C with R1008I; source: S. cerevisiae W303, late G1 arrested cells, whole-cell extract
T2 sequence (looked up): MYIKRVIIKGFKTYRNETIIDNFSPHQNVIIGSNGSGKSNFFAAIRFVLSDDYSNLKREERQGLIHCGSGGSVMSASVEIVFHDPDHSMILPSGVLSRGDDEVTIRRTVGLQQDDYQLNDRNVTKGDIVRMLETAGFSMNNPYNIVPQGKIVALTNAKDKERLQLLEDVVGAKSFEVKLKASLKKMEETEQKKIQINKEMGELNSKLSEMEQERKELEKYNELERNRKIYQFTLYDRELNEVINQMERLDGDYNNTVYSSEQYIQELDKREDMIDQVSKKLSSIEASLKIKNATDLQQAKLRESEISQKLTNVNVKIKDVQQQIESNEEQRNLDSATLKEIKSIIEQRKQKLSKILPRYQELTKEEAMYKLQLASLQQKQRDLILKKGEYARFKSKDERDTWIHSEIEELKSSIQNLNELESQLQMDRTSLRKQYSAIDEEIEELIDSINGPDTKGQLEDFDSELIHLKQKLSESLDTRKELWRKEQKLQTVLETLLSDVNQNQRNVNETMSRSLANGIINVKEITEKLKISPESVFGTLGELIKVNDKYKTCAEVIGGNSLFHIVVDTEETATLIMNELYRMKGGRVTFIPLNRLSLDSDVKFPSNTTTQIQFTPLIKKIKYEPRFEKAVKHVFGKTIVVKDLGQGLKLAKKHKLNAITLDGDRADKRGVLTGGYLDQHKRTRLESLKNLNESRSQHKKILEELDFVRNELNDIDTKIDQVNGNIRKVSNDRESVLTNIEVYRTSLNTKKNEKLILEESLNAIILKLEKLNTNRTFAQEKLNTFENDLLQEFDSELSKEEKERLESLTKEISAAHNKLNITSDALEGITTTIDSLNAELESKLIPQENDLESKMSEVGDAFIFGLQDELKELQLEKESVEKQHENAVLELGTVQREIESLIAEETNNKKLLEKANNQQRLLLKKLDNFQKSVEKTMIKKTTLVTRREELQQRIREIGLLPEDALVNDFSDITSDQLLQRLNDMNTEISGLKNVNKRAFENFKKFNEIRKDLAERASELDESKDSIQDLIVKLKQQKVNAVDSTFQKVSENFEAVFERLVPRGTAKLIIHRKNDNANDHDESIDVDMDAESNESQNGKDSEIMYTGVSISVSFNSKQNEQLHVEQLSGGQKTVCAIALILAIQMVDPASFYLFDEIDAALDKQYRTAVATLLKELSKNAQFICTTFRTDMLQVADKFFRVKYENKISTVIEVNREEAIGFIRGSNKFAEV

crosslink relative to wild-type Smc3 [1]: ~10%
crosslink relative to wild-type Smc3 [2]: ~40%
B1: Scc2 T1175C (natural protein, S. cerevisiae, UniProt Q04002 1-1493, looked up)
chain: MSYPGKDKNIPGRIIEALEDLPLSYLVPKDGLAALVNAPMRVSLPFDKTIFTSADDGRDVNINVLGTANSTTSSIKNEAEKERLVFKRPSNFTSSANSVDYVPTNFLEGLSPLAQSVLSTHKGLNDSINIEKKSEIVSRPEAKHKLESVTSNAGNLSFNDNSSNKKTKTSTGVTMTQANLAEQYLNDLKNILDIVGFDQNSAEIGNIEYWLQLPNKKFVLTTNCLTKLQMTIKNITDNPQLSNSIEITWLLRLLDVMVCNIKFSKSSLKMGLDDSMLRYIALLSTIVLFNIFLLGKNDSNLHRESYIMEPVNFLSDLIESLKILTIEYGSLKIEFDTFQEALELLPKYIRNGPFLDDNVTAKLVYIFSDLLMNNDIEATTNIQFQSFWDNVKRISSDILVSLFGSFDQQRGFIIEELLSHIEKLPTKRIQKKLRKVGNQNIYITDFTFTLMSMLENINCYSFCNQMKDIAPENIDLLKNEYKKQEEFLFNIVEHINDTILERFFKNPSALRYVIDNFVQDLLLLISSPQWPVTEKILSSLLKRLLSVYSPSMQVSANIETICLQLIGNIGSTIFDIKCSTRDHEDNNLIKMINYPETLPHFFKSFEECIAYNETIKCRRSATRFLWNLRLGTILILEEYTKDAKEQIITVDNELKKILEQIKDGGLGPELENREADFSTIKLDYFSILHAFELLNLYDPYLKLILSLLAKDKIKLRSTAIKCLSMLASKDKVILSNPMVKETIHRRLNDSSASVKDAILDLVSINSSYFEFYQQINNNYNDDSIMVRKHVLRINEKMYDETNDIVTKVYVIARILMKIEDEEDNIIDMARLILLNRWILKVHEVLDQPEKLKEISSSVLLVMSRVAIMNEKCSQLFDLFLNFYLLNKEAHSKEAYDKITHVLTILTDFLVQKIVELNSDDTNEKNSIVDKQNFLNLLAKFADSTVSFLTKDHITALYPYMVSDEKSDFHYYILQVFRCTFEKLANFKQKFLYDLETTLLSRLPKMNVREIDEAMPLIWSVATHRHDTARVAKACSSCLSHLHPYINKANNEEAAIVVDGKLQRLIYLSTGFARFCFPKPSNDKIAFLQEGETLYEHITKCLLVLSKDKITHVIRRVAVKNLTKLCGNHPKLFNSRHVLHLLDKEFQSDQLDIKLVILESLYDLFLLEERKSVRNCGVNSTLSSNSILKKKLLKTNRVEFANDGVCSALATRFLDNILQLCLLRDLKNSLVAIRLLKLILKFGYTNPSHSIPTVIALFASTSQYIRHVAYELLEDLFEKYETLVFSSLSRGVTKAIHYSIHTDEKYYYKHDHFLSLLEKLCGTGKKNGPKFFKVLKRIMQSYLDDITDLTSTNSSVQKSIFVLCTNISNITFVSQYDLVSLLKTIDLTTDRLKEVIMDEIGDNVSSLSVSEEKLSGIILIQLSLQDLGTYLLHLYGLRDDVLLLDIVEESELKNKQLPAKKPDISKFSAQLENIEQYSSNGKLLTYFRKHVKDT
notes: Scc2, S. cerevisiae; source: S. cerevisiae W303, in vivo, whole-cell extract
